From publication PMC3630172

Tested on: GST-rPfPuf2 (Plasmodium falciparum)
Test: EMSA
Conditions: LightShift RNA EMSA binding buffer (salt, pH not given), 5% glycerol, 2 ug tRNA per 20 ul, RNase inhibitor, 2.5 nM RNA, 0.25-400 nM rPfPuf2, room temperature …

Sequence	Kd
GAAAUGUUCUUUUCCAAUUAUAUUUUGUUCGAUGAUUC [pfs28 RNA1M]	143 nM
GAAAUGUUCUUUUGUAAUUAUAUUUUGUUCGAUGAUUC [pfs28 RNA1]	6.7 nM
UUCUCAUUUCCUAAUAAAUUGUUGUGAAAACAA [pfs25 RNA1M]	169 nM
UUCUCAUUUGUUAAUAAAUUGUUGUGAAAACAA [pfs25 RNA1]	11.5 nM
